Measured values published in article PMC11169542, “A probe for NIR-II imaging and multimodal analysis of early Alzheimer’s disease by targeting CTGF” (Nature Communications, 2024).
Ends that are not written are not given here.

Legend:
U87MG cells = test: Cytotoxicity of DGC (CCK-8); assay type: cell-based, human; parameters: key to Cell viability: viability relative to control cells (control = 1); details: for Cell viability: 24 h, CCK-8, normalized to control
Procedure: (§1) U87MG, SH-SY5Y, and CTX TNA2 cells were seeded into 96-well plates at a density of 5 × 10^3 cells per well and were incubated at 37 °C for 24 h. […] Next, 10 µL of a colorimetric Cell Counting Kit (CCK-8) reagent diluted with 100 µL medium was added to each well, and incubated for 30 min, The absorbance at 450 nm was measured using a microplate reader (Molecular Devices, San Jose, CA, USA). The relative viability was normalized to control cells. The experiment was performed in triplicates.

SH-SY5Y cells = test: Cytotoxicity of DGC (CCK-8); assay type: cell-based; parameters: key to Cell viability: viability relative to control cells (control = 1); details: for Cell viability: 24 h, CCK-8, normalized to control
Procedure: as §1

CTGF = biological target: T1, CTGF (Mus musculus, UniProt P29268); test: DAB chromogenic imaging of DGC-labelled mouse brain sections; parameters: species or system APP/PS1 and wild-type C57BL/6J mice; details: 200 μM DGC + DAB
T1 construct: brain sections of the age-matched wild-type C57BL/6J mice were used as controls; from tissue; host or cells: brain of APP/PS1 transgenic and wild-type C57BL/6J mice (sections, living animal, perfused isolated brain)
T1 sequence (P29268 26-348): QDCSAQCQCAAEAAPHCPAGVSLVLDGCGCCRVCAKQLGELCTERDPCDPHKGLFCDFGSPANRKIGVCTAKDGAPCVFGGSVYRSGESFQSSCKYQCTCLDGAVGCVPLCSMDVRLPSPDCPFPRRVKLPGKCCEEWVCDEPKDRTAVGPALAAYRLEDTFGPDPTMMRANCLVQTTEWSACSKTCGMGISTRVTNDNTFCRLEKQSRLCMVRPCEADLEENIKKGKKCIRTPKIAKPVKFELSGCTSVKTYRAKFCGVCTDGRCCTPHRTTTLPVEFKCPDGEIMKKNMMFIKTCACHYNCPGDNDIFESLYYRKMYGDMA
Procedure: To observe the expression level of CTGF in the brain section with the naked eye, we optimized the conditions for labeling WT mice, 3-month-old APP/PS1 mice and 9-month-old APP/PS1 mice stained with DGC. According to the study, the optimal incubation concentration of DGC (200 μM) was used to determine the conditions using the DAB Horseradish Peroxidase Color Development Kit. After the brain sections were co-stained by DGC (200 μM) at 4 °C overnight, a DAB chromogenic agent was added to the brain sections. […] After the brown product was imaged by optical microscopy and analyzed by Image Pro Plus software.

[1] = Effect of DGC on blood biochemistry of mice; assay type: in vivo, C57BL/6J mice; details: DGC group, mean of 3 mice
Source text: In order to clarify the NIR-II signal in AD brains when in vivo imaging is arisen from the DGC probe that bound to CTGF, we selected 3-month-old APP/PS1 mice representing early-stage AD and the age-matched WT mice as control to performed ex vivo multimodal analysis of the brain sections. […] To exclude the influence of vascular retention, we emptied the cerebral vessels by cardiac perfusion and performed ex vivo imaging of the brains. […] For brain sections made from AD mice after tail vein injection of DGC, the red fluorescence observation and LA-ICP-TOF-MS of DGC, as well as a POD-like catalysis test were performed. […] In Fig. 6c, the colocalization of DGC (red fluorescence) and CTGF (green fluorescence) on the ex vivo brain sections confirmed the specificity of DGC targeting CTGF in vivo. To further identify the cellular target of DGC in the brain of APP/PS1 mice, we carried out immunofluorescence staining on the ex vivo brain sections after tail vein injection of DGC where cell-specific fluorescent antibodies for microglia (Iba 1), neurons (NeuN), vascular endothelial cell (CD31) and reactive astrocytes (GFAP) were applied. In Fig. 6d, […] co-localizes with GFAP-positive active astrocytes and CD31-positive microvessels, but not with neurons or microglia. […] The biosafety of DGC in C57BL/6J mice under the NIR-II imaging condition was evaluated by blood tests (blood cells and biochemical analysis) and organ pathological analysis (H&E staining).

[2] = 10 μM (Au content), replicate 1
[3] = 10 μM (Au content), replicate 2
[4] = 10 μM (Au content), replicate 3
[5] = 20 μM (Au content), replicate 1
[6] = 20 μM (Au content), replicate 2
[7] = 20 μM (Au content), replicate 3
[8] = 50 μM (Au content), replicate 1
[9] = 50 μM (Au content), replicate 2
[10] = 50 μM (Au content), replicate 3
[11] = 100 μM (Au content), replicate 1
[12] = 100 μM (Au content), replicate 2
[13] = 100 μM (Au content), replicate 3
[14] = 200 μM (Au content), replicate 1
[15] = 200 μM (Au content), replicate 2
[16] = 200 μM (Au content), replicate 3
[17] = 500 μM (Au content), replicate 1
[18] = 500 μM (Au content), replicate 2
[19] = 500 μM (Au content), replicate 3

Substance: DGC: CTGF-targeting peptide-coated gold nanocluster: one Au26 gold nanocluster coated by eight DAG cyclic peptides, NIR-II and red fluorescence (CDAGRKQKC; also: cyclic peptide, ring not given here, eight peptides on one Au26 nanocluster via Cys Au-S bonds)
- Cell viability (U87MG cells; 5 μM (Au content), replicate 1): 1.188
- Cell viability (U87MG cells; 5 μM (Au content), replicate 2): 1.205
- Cell viability (U87MG cells; 5 μM (Au content), replicate 3): 1.21
- Cell viability (U87MG cells; [2]): 1.185
- Cell viability (U87MG cells; [3]): 1.16
- Cell viability (U87MG cells; [4]): 1.163
- Cell viability (U87MG cells; [5]): 1.112
- Cell viability (U87MG cells; [6]): 1.134
- Cell viability (U87MG cells; [7]): 1.136
- Cell viability (U87MG cells; [8]): 1.152
- Cell viability (U87MG cells; [9]): 1.117
- Cell viability (U87MG cells; [10]): 1.103
- Cell viability (U87MG cells; [11]): 1.07
- Cell viability (U87MG cells; [12]): 1.085
- Cell viability (U87MG cells; [13]): 1.085
- Cell viability (U87MG cells; [14]): 1.067
- Cell viability (U87MG cells; [15]): 1.053
- Cell viability (U87MG cells; [16]): 1.071
- Cell viability (U87MG cells; [17]): 1.0892
- Cell viability (U87MG cells; [18]): 1.102
- Cell viability (U87MG cells; [19]): 1.058
- cytotoxicity (U87MG cells; DGC incubation 24 h, CCK-8): did not cause any obvious cytotoxicity
- Cell viability (SH-SY5Y cells; 5 μM (Au content), replicate 1): 1.078
- Cell viability (SH-SY5Y cells; 5 μM (Au content), replicate 2): 1.039
- Cell viability (SH-SY5Y cells; 5 μM (Au content), replicate 3): 1.074
- Cell viability (SH-SY5Y cells; [2]): 0.9372
- Cell viability (SH-SY5Y cells; [3]): 1.045
- Cell viability (SH-SY5Y cells; [4]): 1.038
- Cell viability (SH-SY5Y cells; [5]): 1.029
- Cell viability (SH-SY5Y cells; [6]): 1.021
- Cell viability (SH-SY5Y cells; [7]): 1.039
- Cell viability (SH-SY5Y cells; [8]): 1.012
- Cell viability (SH-SY5Y cells; [9]): 1.009
- Cell viability (SH-SY5Y cells; [10]): 1.025
- Cell viability (SH-SY5Y cells; [11]): 0.9429
- Cell viability (SH-SY5Y cells; [12]): 0.9751
- Cell viability (SH-SY5Y cells; [13]): 1.036
- Cell viability (SH-SY5Y cells; [14]): 0.977
- Cell viability (SH-SY5Y cells; [15]): 1.039
- Cell viability (SH-SY5Y cells; [16]): 0.9912
- Cell viability (SH-SY5Y cells; [17]): 0.9817
- Cell viability (SH-SY5Y cells; [18]): 0.9959
- Cell viability (SH-SY5Y cells; [19]): 1.057
- cytotoxicity (SH-SY5Y cells; DGC incubation 24 h, CCK-8): did not cause any obvious cytotoxicity
- DAB chromogenic imaging intensity (CTGF; 3-month-old APP/PS1 mouse brain section, section 1): 0.198
- DAB chromogenic imaging intensity (CTGF; 3-month-old APP/PS1 mouse brain section, section 2): 0.151
- DAB chromogenic imaging intensity (CTGF; 3-month-old APP/PS1 mouse brain section, section 3): 0.127
- DAB chromogenic imaging intensity (CTGF; 9-month-old APP/PS1 mouse brain section, section 1): 0.282
- DAB chromogenic imaging intensity (CTGF; 9-month-old APP/PS1 mouse brain section, section 2): 0.35
- DAB chromogenic imaging intensity (CTGF; 9-month-old APP/PS1 mouse brain section, section 3): 0.237
- DAB chromogenic imaging intensity (CTGF; WT mouse brain section, Image Pro Plus, section 1): 0.03
- DAB chromogenic imaging intensity (CTGF; WT mouse brain section, Image Pro Plus, section 2): 0.061
- DAB chromogenic imaging intensity (CTGF; WT mouse brain section, Image Pro Plus, section 3): 0.019
- Urea (UREA) [1]: 9.62 ± 1.25
- Alanine aminotransferase (ALT) ([1]; in U/L (unit assumed)): 32.8 ± 4.26
- Alkaline phosphatase (ALP) ([1]; in U/L (unit assumed)): 220.7 ± 27.07
- Aspartate aminotransferase (AST) ([1]; in U/L (unit assumed)): 120.2 ± 20.04
- Creatinine (CREA) ([1]; in µmol/L (unit assumed)): 22.67 ± 1.98
